Results published in the DeepSol protein solubility set.

Assay: soluble on expression in E. coli; label from the status in PepcDB or PDB records

Sequence | soluble on expression in E. coli
MPEEKQKKSVLEKALKRIEENFGKGSIMILGDETQVQPVEVIPTGSLAIDIATGVGGYPRGRIVEIFGQESSGKTTLALHAIAEAQKMGGVAAFIDAEHALDPVYAKNLGVDLKSLLISQPDHGEQALEIVDELVRSGVVDLIVVDSVAALVPRAEIEGAMGDMQVGLQARLMSQALRKIAGSVNKSKAVVIFTNQIRMKIGVMFGSPETTTGGLALKFYATMRMEVRRGEPIKEGKDVIGNVISVKIVKNKVAPPFKTAQTYIIYGKGIDREYELFNIAVNEGIVDRKGSWYYYTTLKGEEVSLGQGSSNAVQFLKDNPEIAGEIERRIREKYGLLSVEKEEQRKEKKSSGEEAS | soluble
MNTKFLGKTLVASALVLTTLGTGLHSSYLGLDTNKVVKTAKAEEKMTDGQLWKKVKDSLHDSDIILSNEYETINVTYLLSNGYSSSVSAPGNDDGGHLTQSIDFKGLKQIDLTKENVYDDFNKKLDAKNTWNSLTEKLKGLGLLQNGQKVSIYSSDSSSPVSGKVGEGVTSGGENTLTKRFINKITID | not soluble
MGSDKIHHHHHHMETLRILHTNDLHSHFEHFPKIRRYLKQVQETAAADQVLTFDAGDFMDRSHPLSDATEGQANIRLMNDFHYDAITIGNNEGISNPHAVLERLFDHANFPVLLSNLREEDESWPAWANDYKIIKTKKGTRLALVGLTAAYPMTYGPNHWQIKMLGETMDRVLPEIAGQYDCLILLTHVGLRMDQWLAKHYPEIDLIVGGHSHTLLEKGVKEGRTWITQTDKWGNYVGDISLEIGDDHKIISIKPTTVPVADLPSQAGDEAEIAALYEEGQKMLQSRHVADLPEKFKDDKLAAIDVSLEAIADFAGTDLAMLSTGLFLTPFKGGLINQFDLQHALPHPMHVVRTTLLGRDLWRLVMEVEKNRHFLENYPLVGMSFRGKIFGQVYYRGIKYDPMTRNVFVNGQLLDPAEEYRIAVLDHYVLIPFFPTLAIVGENEFLFPQFLREVVGDYLGRKYPMKKEGE | not soluble
SLIDNPHAQDYWPNRGQMDVQGLAVKYTEAGRAVLSDISFSVEGGLSMGLLGRTGSGKSTLLSALLRLASTDGEISIDGISWNSVPLEKWRKAFGVVPQKVFILTGTFRMNLDPHGRYSDEELWRVADQVGLKSVIEQFPDRLDFQLENGGSVLSHGHKQLMCLARSILSKARILLLDEPSAYLDTITLQVLRKTLKHAFSDCTVILSEHKVEPLLECDSFLVIEGSSVKSYDSIQKLLNEMSDLKQAVSAAD | soluble
PKHGKRYRALLEKVDPNKIYTIDEAAHLVKELATAKFDETVEVHAKLGIDPRRSDQNVRGTVSLPHGGRIEFRNDKTGAIHAPVGKASFPPEKLADNIRAFIRALEAHKPEGAKGTFLRSVYVTTTMGPSVRINPHS | soluble
MAHHHHHHMCAALSPAHFQLRVKILSEAAKHVPETGFTNAALAASLKSIGVEDITDRTLSQIFNRGFPIALVEHIVKSTNLHVQRELESVFSKDAIIKSIDSNVDAFVQNRLLLPTEKNVVEKAILSKLELLIPLAEHWPSAVALEYLPANLPYTVMNLAEFVDTTVYYMERATTLGELLDPARRILRSKAMASRIRSGEVDSNGASPTSEFLKSFLKGISLSSGPYAGPSALNLGWYCKRAQVAIVYGAVTTSLLGDVSQNAADTRSLTKAAVETVF | not soluble
MVSRHIPERLKKKIYQEANMTCPNCGERDVSTFEIHHIQPFVDVKKHEERNLILLCSNCHSKATVGELTEIEVLRLKVGLISSSSGQSKETMPSNVITLDSVKNHGVIANQVTLNNSPAKVVLLPAVGSIASSLKHQNYIKYLIDKYHAYKIVEVGKSNMKYPVFYNALKRKFGAKWDMVPIDRFLELSTYIQDRIEKTVLGKKLKAQGKKSYSTFEEYLAKNCSLEHHHHHH | not soluble
MGSDKIHHHHHHMKVFVIGAGLMGRGIAIAIASKHEVVLQDVSEKALEAAREQIPEELLSKIEFTTTLEKVKDCDIVMEAVFEDLNTKVEVLREVERLTNAPLCSNTSVISVDDIAERLDSPSRFLGVHWMNPPHVMPLVEIVISRFTDSKTVAFVEGFLRELGKEVVVCKGQSLVNRFNAAVLSEASRMIEEGVRAEDVDRVWKHHLGLLYTLFGPLGNLDYIGLDVAYYASLYLYKRFGDEKFKPPEWLQEKIKKGEVGVKAGKGIYEYGPKAYEERVERLKKLLRFLGLE | soluble
MGSDKIHHHHHHMMRVFHLVLAPRLSGAEVLAKDLALDQCAEGMAVCVASLLPAHAEFAPLQDDLQRHGVQCVFPRRRHRALVKLCHLFGAVRRFRPDVIFAHATIPSFYARALPLRVPVVYVMHSATNDFERPLFRRIEHILSGRARVVIGVSEQGVTDYVQAIGPHPSMTVVPNGVDLARFSFTDGVERDGRTPQVVQIGRYAAVKNQLATVRAFSEVLMKGKDARLVLYGVVEDPDYQRAVVALAKELGIAERVVVAGPRTDVATVLSESNVFVMPSQSEAHSVAFLEALASGVPIVASKIPAFAFANGFPGVQLIDTDNVQCYAEAVIAALGQERAQRSLTGLTLRDTADRYRAIARQVSLAVPAR | not soluble
MGSDKIHHHHHHMKVAYVIGGLPFGGVESWLLDLARHVSKTSDFECRVFNVSGTGVKMPEYISSGVDVVCAGNSLDSIATHRIDTVLRLRSQLVEYAPDIIHTLHFSGDYCGRLASIGLGVPVVTHLRNIKCERKLRRRLANKLLSFFTDMYLSVSRAVADMVADDHNIAKRPSRVIYNAVDPQKLAVEPHDLTAMYGVSGRIVVGVGRYVGQKNFDLLLRALRLVLDEGHDISVVLVGEGGERPHLERLIRELSLEGHAVLTGYRQDVPRFLRASYALAMPSDFEGLPITHLEAMFCGLPAIVSRHVPSLEIAREASLVCKRSPESIAQCIIRLLEDEKLHSTLSNTGSRIASEHTMDLYIKTLKGIYDELASRGKEI | not soluble
MSLKSGCSARQVCAGNTHFAVVTVEKELYTWVNMQGGTKLHGQLGHGDKASYRQPKHVEKLQGKAIHQVSCGDDFTVCVTDEGQLYAFGSDYYGCMGVDKVAGPEVLEPMQLNFFLSNPVEQVSCGDNHVVVLTRNKEVYSWGCGEYGRLGLDSEEDYYTPQKVDVPKALIIVAVQCGCDGTFLLTQSGKVLACGLNEFNKLGLNQCMSGIINHEAYHEVPYTTSFTLAKQLSFYKIRTIAPGKTHTAAIDERGRLLTFGCNKCGQLGVGNYKKRLGINLLGGPLGGKQVIRVSCGDEFTIAATDDNHIFAWGNGGNGRLAMTPTERPHGSDICTSWPRPIFGSLHHVPDLSCRGWHTILIVEKVLNSKTIRSNSSGLSIGTVFQSSSEGHHHHHH | not soluble
MAGDPMAHITRFEAPWFLMISKKQYKWTVRPNAGPHSIEKSIPLAVVIRDYLKLAGTIREAKHIIFDGKVLVDGKVRKDYKYPVGLMDIVSIPSADLYFRVLPDNVRFMRFSKISADEARYKYVRIINKTTIKEGRIQLNLEDGRNILVDKETAKNFKTLMTLKIELPSQQILDSFTISERSYAIFVGGRNVGIHGIVKNINLSKFKSRKYSVITLESRDGNTYQTNIMNVMSIGREKSDLRVDLEHHHHHH | soluble
MKELMRNVYLLDDTLVTKSKYGSHYGEKVFDGYREWVPWRSKLAAMILKGHRLKLRGDERVLYLGAASGTTVSHLADIVDEGIIYAVEYSAKPFEKLLELVRERNNIIPLLFDASKPWKYSGIVEKVDLIYQDIAQKNQIEILKANAEFFLKEKGEVVIMVKARSIDSTAEPEEVFKSVLKEMEGDFKIVKHGSLMPYHRDHIFIHAYRF | soluble
MNTEEQPVTASLVAEAQRLDFLPTYFGPRLMMRGEALVYAWMRRLCERYNGAYWHYYALSDGGFYMAPDLAGRLEIEVNGNGFRGELSADAAGIVATLFALGQLAAEIADTDAADALIDRYHFLRGFAAGHPEAAAIYRAID | soluble
MGSDKIHHHHHHMSIAHQNAHTIIRDILSKQHIERVWFVGCGGSLTGFWPGKYFLDCEAKKLAVGYVTSNEFVHATPNALGKNSVVILASQQGNTAETVEAARIARQKGAATIGLVYTPGTPLCEHSDYTIKYCWARYPETVDPTQQKAAYSLWLALEVLAQTEGYAHYDEMVSAFASFESVVRGAQQQVQADARHFAEAWKTEKVIYMMGSGPSFGAAHQESICILLEMQWINSASIHSGEYFHGPFEITETGTPFILLKSSGRTRPLDDRAIRFIERYQGKLQIIDVEKVGINALHASVREYFCGLLHNCVLDVYNLALATARNHPLTTRRYMWKVEY | not soluble
ESEPQPEPCPGRAGAAARARWCPQPRPLVLLSLGALEFVSLSQQAFQICPVFVVCGLYQDGNSNKSFLLRSWCLHPEGTVCASSPERKDLPEALGNDPGTPGQRGLKLFGKAAGLLGKMAMAPSPSLVQVYTSPAAVAVWEWQDGLGTWHPYSATVCSFIEQQFVQQKGQRFGLGSLAHSIPLGQADPSLAPYIIDLPSWTQFRQDTGTMRAVRRHLFPQHSAPGRGVVWEWLSDDGSWTAYEASVCDYLEQQVARGNQLVDLAPLGYNYTVNYTTHTQTNKTSSFCRSVRRQAGPPYPVTTIIAPPGHTGVACSCHQCLSGSRTGPVSGRYRHSMTNLPAYPVPQHPPHRTASVFGTHQAFAPYNKPSLSGARSAPRLNTTNAWGAAPPSLGSQPLYRSSLSHLGPQHLPPGSSTSGAVSASLPSGPSSSPGSVPATVPMQMPKPSRVQQALAGMTSVLMSAIGLPVCLSRAPQPTSPPASRLASKSHGSVKRLRKMSVKEATPKPEPEPEQVIKNYTEELKVPPDEVCVLGPWLPLFLFGNNSTWKGHPPHLA | soluble
MELAKFIGLTTFQDILEDCFALLVYERPEESNVGYFLEETQREVVADTVNAAILSTKPKGKNQSHSHLETLLRQLTACCLELRSLNDGQGEAFSLNRLLRTNNWKRTKKTT | soluble
MGSDKIHHHHHHLDLSPEDYYGSGNFWTKEAQVEGYMNGLHNNLRSSYTMFYVLGEARGGTSRYGTSSLGTSMSYSDPIKNNMLTKDNTGISNWYDLYGRIMQVNHFISEVSNGCSFLSESKKGFYLGQAYGLRALYYFMLYKTYGGVPLITDVKVLEGGKISADALYTERSTPETILKFIKSDLEASELNFGNNVTIDRAMWTKYATLMLKAEVYMWSAKVTTGDHQATGNSDLAIAQTALQPLINQFSLLDNFSEVFSKKANDEIIFAIRFKDGEATNWAGPFIYYGNIFEGQRYGRDGKLMQDTLDLKGTVGQFLHEYKKALWDSYDDEDMRRDATFMDHYGSAQKEGFGIAMKKGIGSVNSNNQRIFDTDIIVYRYADVLLMMAEIENALSGKCANYVNEVRKRAYGKNWHPQFAYTDGSYADNELTILHERDKEFVWEGKRWFDVVRMHDANGKSLAFSVAANYPNNETPDERVPLIKESEAHKLLWPIDVNTLNNDPKLEQTPGYDK | not soluble
MLAIFHEAFAHPPEELNSPASEKCSKQPKLPEETLNDFLLRYPLNTFSMSFGQAAVLAYVRPSASFSIHQRLFCGFDDIYCLFFGSLNNLCQLNKQYGLTKTTNEAMFVIEAYRTLRDRGPYPADQVVKDLDGSFSFVVYDSKAGSVFTALVLIHKISPRLLELNFNGSDGGVKLYWGIAADGSVVISDDLDVIKEGCAKSFAPFPTGCMFHSEGGLMSFEHPMNKIKAMPRVDSEGVLCGANFKVDVYNRVNSIPRRGSEANWSL | soluble
